Consider two molecules from PMC4689616 (Nature cell biology, 2015).

One experiment concerns the target T1, TTC7B(9-843) (UniProt Q86TV6 9-843).
T1 sequence: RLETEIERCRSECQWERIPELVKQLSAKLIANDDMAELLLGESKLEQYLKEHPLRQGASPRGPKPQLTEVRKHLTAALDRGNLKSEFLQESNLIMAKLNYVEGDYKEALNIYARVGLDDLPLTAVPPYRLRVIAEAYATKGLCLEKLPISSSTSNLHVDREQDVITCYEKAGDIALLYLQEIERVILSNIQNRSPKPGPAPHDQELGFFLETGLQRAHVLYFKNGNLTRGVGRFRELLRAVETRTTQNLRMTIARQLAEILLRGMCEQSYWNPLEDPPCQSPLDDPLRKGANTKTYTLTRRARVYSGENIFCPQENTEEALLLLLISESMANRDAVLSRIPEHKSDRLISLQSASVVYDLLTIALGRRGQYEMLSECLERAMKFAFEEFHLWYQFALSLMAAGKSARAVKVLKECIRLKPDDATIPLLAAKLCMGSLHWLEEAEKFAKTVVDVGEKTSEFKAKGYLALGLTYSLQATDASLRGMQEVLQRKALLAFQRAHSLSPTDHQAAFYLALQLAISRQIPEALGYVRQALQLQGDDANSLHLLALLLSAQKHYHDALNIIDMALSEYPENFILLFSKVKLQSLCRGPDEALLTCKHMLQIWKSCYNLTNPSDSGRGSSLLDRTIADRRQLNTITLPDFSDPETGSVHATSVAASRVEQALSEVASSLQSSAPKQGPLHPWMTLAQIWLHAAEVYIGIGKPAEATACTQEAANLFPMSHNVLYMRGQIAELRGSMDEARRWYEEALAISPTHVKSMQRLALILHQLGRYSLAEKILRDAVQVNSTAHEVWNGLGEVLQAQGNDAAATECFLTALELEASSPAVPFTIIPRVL
In words: SEC. (In general: SEC sorts molecules by how far they enter the pores of the column.)

Experiment [1] deals with 3xFLAG-PI4KIIIα (wild-type) (UniProt P42356-1 1-2102). In words: pull-down.

B1: FAM126A(2-308) (domain or fragment)
chain: FTSEKGVVEEWLSEFKTLPETSLPNYATNLKDKSSLVSSLYKVIQEPQSELLEPVCHQLFEFYRSGEEQLLQFTLQFLPELIWCYLAVSASRNVHSSGCIEALLLGVYNLEIVDKQGHTKVLSFTIPSLSKPSVYHEPSSIGSMALTESALSQHGLSKVVYSGPHPQREMLTAQNRFEVLTFLLLCYNAALTYMPSVSLQSLCQICSRICVCGYPRQHVRKYKGISSRIPVSSGFMVQMLTGIYFAFYNGEWDLAQKALDDIIYRAQLELYPEPLLVANAIKASLPHGPMKSNKEGTRCIQVEITPT
On to B1, for which, in the experiment with TTC7B(9-843), the binding result is “binds”.

B2: GST-FAM126A-N/TTC7B dimer (complex)
chain 1: B1 chain
chain 2: T1 sequence
Regarding B2, the binding result in experiment [1] is “binds”.
